From article PMC2637432

Biological target: human cytomegalovirus (HCMV)-encoded chemokine receptor US28, HA-tagged (human cytomegalovirus (HCMV)) (UniProt P69332)
UniProt P69332, sequence (P69332 whole entry): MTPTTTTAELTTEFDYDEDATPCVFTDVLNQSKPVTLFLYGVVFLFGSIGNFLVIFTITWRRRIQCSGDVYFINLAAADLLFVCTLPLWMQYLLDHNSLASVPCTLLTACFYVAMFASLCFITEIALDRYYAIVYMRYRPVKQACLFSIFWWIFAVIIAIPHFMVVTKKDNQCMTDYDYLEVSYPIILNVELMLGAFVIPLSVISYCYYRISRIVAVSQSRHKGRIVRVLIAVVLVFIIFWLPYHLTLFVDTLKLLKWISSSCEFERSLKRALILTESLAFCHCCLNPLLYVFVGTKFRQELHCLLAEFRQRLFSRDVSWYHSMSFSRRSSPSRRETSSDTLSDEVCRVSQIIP

## recombinant human Fractalkine (from UniProt P78423 25-341) (ligand)
  lowest Fractalkine concentration that blocked migration of US28-expressing SMC induced by 40 ng/ml RANTES (competition migration assay): 10 ng/mL
